Assay results published in US20250361295A1 (published 2025).

B1: ch8-B3-F6-H8 (antibody, V domains shown)
VH: EVKVIESGGGLVQPGGSLKLSCAASGFDFSRYWMSWVRQAPGKGLEWIGEINPDSSAINYTPSLKDKFIISRDNAKNTLYLQMSKVRSEDTALYYCATSMTMDYWGQGTSVTVSS
VL: DIVMTQSPSSMYASLGERVTITCKASQDIKSYLSWYQQKPWKSPKTLIYYATSLADGVPSRFSGSGSGQDYSLTISSLESDDTATYYCLQHGESPYTFGGGTKLEK
B2: NGM831 (antibody, V domains shown)
VH: EVQLQQSGPEVKPGASVKISCKASGYTFTDYNMDWVKQSHGKSEWIGYIYPSNGGTGYNQKFKSKATLTVDKSSNTAYMELHSLTSEDSAVYYCARVPYYDYLYYYAMDYWGQGTSVTVSS
VL: QIVLSQSPAILSASPGEKVTMACRASSSVSFMHWYQQKPGSSPQPWIYATSNLASGVPARFSGSGSGTSYSLTISRVEAEDAATYYCQQWSTNPYMYTFGGGTKLEIK
B3: IO-202 (antibody, V domains shown)
VH: EVQLLESGGGLVQPGGSLRLSCAASGIDFSNHYYMYWVRQAPGKGLEWIGSIFSGDSASTYYADSAKGRFTISRDNSKNTLYLQMNSLRAEDTAVYYCARGMSTNDWASDLWGQGTLVTVSS
VL: DIQMTQSPSSLSASVGDRVTITCQASESINSIYLAWYQQKPGKAPKLLIYRASTLASGVPSRFSGSGSGTDFTLTISSLQPEDFATYYCQQSYDWGDVENTFGGGTKVEIK
B4: h2-H1-D7-E5-D5 (antibody, V domains shown)
VH: EVQLVESGGGLVQPGGSLRLSCAASGFTFSSFGMHWVRQAPGKGLEWVAYISSGSSSIYYADTVKGRFTISRDNAKNSLYLQMNSLRAEDTAVYYCARGTGTGAMDYWGQGTLVTVSS
VL: DIQMTQSPSSLSASVGDRVTITCRTSQDISNYLNWYQQKPGKAPKLLIYYTSKLHSGVPSRFSGSGSGTDFTFTISSLQPEDIATYFCQQGNTLPWTFGGGTKLEIK
B5: ch2-H1-D7-E5-D5 (antibody, V domains shown)
VH: EVHLVESGGGLVQPGGSRKLSCAASGFTFSSFGMHWVRQPPEKGLEWVAYISSGSSSIYYADTVKGRFTISRDNPKNTLFLQMTSLRSEDTAMYYCARGTGTGAMDYWGQGTSVTVSS
VL: DIQMTQTTSSLSASLGDRVTISCRTSQDISNYLNWYQQKPDGTVKLLIYYTSKLHSGVPSRFSGSGSGTDYSLTISNLDQEDIATYFCQQGNTLPWTFGGGTKLEIK
B6: h8-B3-F6-H8 (antibody, V domains shown)
VH: EVQLVESGGGLVQPGGSLRLSCAASGFDFSRYWMSWVRQAPGKGLVWIGEINPESSAINYAPSLKDRFTISRDNAKNTLYLQMNSLRAEDTAVYYCATSMTMDYWGQGTLVTVSS
VL: DIQMTQSPSSLSASVGDRVTITCKASQDIKSYLSWYQQKPGKAPKTLIYYATSLAGGVPSRFSGSGSGTDYTLTISSLQPEDFATYYCLQHGESPYTFGGGTKLEIK

Columns and labels:
human LILRB4 [1] = target: T1, human LILRB4 (human, UniProt Q8NHJ6 22-448); experiment: FACS
human LILRB4 [2] = target: T1, human LILRB4; experiment: ELISA; panel B
human LILRB4 [3] = target: T1, human LILRB4; experiment: ELISA; panel A
human LILRB4 [4] = target: T1, human LILRB4; experiment: competitive FACS; competition with NGM831
human LILRB4 [5] = target: T1, human LILRB4; experiment: competitive FACS; competition with h2-H1-D7-E5-D5

T1 sequence (Q8NHJ6 22-448): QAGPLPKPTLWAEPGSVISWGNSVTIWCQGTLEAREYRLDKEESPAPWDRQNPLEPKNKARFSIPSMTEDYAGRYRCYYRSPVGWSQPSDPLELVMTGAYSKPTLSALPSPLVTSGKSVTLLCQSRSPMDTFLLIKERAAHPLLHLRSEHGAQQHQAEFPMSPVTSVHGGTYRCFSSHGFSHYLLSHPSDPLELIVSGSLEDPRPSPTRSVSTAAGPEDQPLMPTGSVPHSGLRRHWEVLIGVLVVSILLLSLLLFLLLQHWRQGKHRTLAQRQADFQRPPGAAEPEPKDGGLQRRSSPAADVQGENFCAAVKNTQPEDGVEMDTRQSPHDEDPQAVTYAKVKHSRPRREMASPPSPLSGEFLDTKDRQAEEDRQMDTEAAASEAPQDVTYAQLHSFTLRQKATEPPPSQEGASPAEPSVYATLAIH

Binder | EC50 (human LILRB4 [1]) | EC50 (human LILRB4 [2]) | EC50 (human LILRB4 [3]) | EC50 (human LILRB4 [4]) | EC50 (human LILRB4 [5])
B1 | 1490 pM | 31.7 pM |  |  | 
B2 | 849 pM | 26.5 pM | 37.2 pM | 3670 pM | 
B3 |  | 14.1 pM | 17.2 pM |  | 
B4 |  |  | 7960 pM |  | 
B5 |  |  | 1120 pM |  | 
B6 |  | 28.6 pM |  |  | 6330 pM
